The labels stand for the following.
B1: SAM and SH3 domain-containing protein 1, residues 630 to 700; numbered along this chain, O94885 (parent)
chain: GRPPQPKSVEDLLDRINLKEHMPTFLFNGYEDLDTFKLLEEEDLDELNIRDPEHRAVLLTAVELLQEYDSN
B2: Formin-binding protein 4, residues 200 to 261; numbered along this chain, Q8N3X1 (parent)
chain: SGWQYDTQCSLAGVGIEMGDWQEVWDENTGCYYYWNTQTNEVTWELPQYLATQVQGLQHYQP

± gives the uncertainty stated by the source.

The first data set covers variants of B1. Briefly: abundance fitness (aPCA) (normalised: wild type 0, dead -1); higher = more abundant; growth selection in yeast, the domain comes from the species named. The settings on record: Homo sapiens.
Turning to GRPPQPKSVEDLLDRINLKEHMPTFLFNGYEDLDTFKLLEEEVLDELNIRDPEHRAVLLTAVELLQEYDSN, the abundance fitness is -0.456 ± 0.047.

Take GRPPQPKSVEDLLDYINLKEHMPTFLFNGYEDLDTFKLLEEEDLDELNIRDPEHRAVLLTAVELLQEYDSN: the abundance fitness was -0.3 ± 0.053. Same read-out and setting: then GRPPQPKSVEDLLDRINLKEHMPTFLFNGYEDLDTFKLLFEEDLDELNIRDPEHRAVLLTAVELLQEYDSN, with -1.01 ± 0.089; and GRPPQPKSVEDLLDRINLKEHMPTFLFNGYEDLDTFKLLEEEDLDELNIRDQEHRAVLLTAVELLQEYDSN, with -0.424 ± 0.057.

As to GRPPQPKSVEDLLDRINLKEHMPTFLFNGYEDLRTFKLLEEEDLDELNIRDPEHRAVLLTAVELLQEYDSN, the abundance fitness was -0.465 ± 0.045.

For the variant GRPPQPKFVEDLLDRINLKEHMPTFLFNGYEDLDTFKLLEEEDLDELNIRDPEHRAVLLTAVELLQEYDSN, the abundance fitness is -0.984 ± 0.11. GRPPQPKSVEDLLDRINLKEHMPTFLFNGYEDLDTFKLLEEEDLDELNIRDPHHRAVLLTAVELLQEYDSN: the abundance fitness was -0.09 ± 0.049.

Regarding GRPPQPKSVEDLLDRINLKEHMPTFLFNGYEDLDTFKLLEEEDLDELNIRDPTHRAVLLTAVELLQEYDSN, the abundance fitness was -0.207 ± 0.043.

Take GRPPQPKSVTDLLDRINLKEHMPTFLFNGYEDLDTFKLLEEEDLDELNIRDPEHRAVLLTAVELLQEYDSN: the abundance fitness was -0.559 ± 0.052. Consider GRPPQPKSTEDLLDRINLKEHMPTFLFNGYEDLDTFKLLEEEDLDELNIRDPEHRAVLLTAVELLQEYDSN, for which the abundance fitness is -0.701 ± 0.056.

Regarding GRPPQPKSVEDSLDRINLKEHMPTFLFNGYEDLDTFKLLEEEDLDELNIRDPEHRAVLLTAVELLQEYDSN, the abundance fitness is -0.75 ± 0.057. As to GRPPQPKSVEDLLDRINLKEHMPTFLFNGYEDLDTFKLLEEEDLDELNIRDPEHRAVLLTAVELLQEYDSG, the abundance fitness was found to be 0.041 ± 0.053. In the case of GRPPQPKSVEDLLDRINLKEHMPTFLFNGYEDLDTFKLLEEEDLDELNIRDPEHRATLLTAVELLQEYDSN, the abundance fitness came to 0.232 ± 0.038. The same measure, in the same setting: then GRPPQPKSVEDLLDRINLKEHMPTFLFNGYEDLDTFKLLEEEDDDELNIRDPEHRAVLLTAVELLQEYDSN, with -0.819 ± 0.087; and GRPPQPKSVEDLLDRINLKEHMPTFLFNGYEDLDTFKLLEEEDFDELNIRDPEHRAVLLTAVELLQEYDSN, with -0.38 ± 0.061. Still for that read-out and setting: then GRPPQPKSVEDLLDRINLKEHMPTFLFNGYEDLDTFKLLEEEDLDELNISDPEHRAVLLTAVELLQEYDSN, with -0.06 ± 0.036. Same read-out and setting: then GRPPQPKSVEDLLDRINLKEHMPTNLFNGYEDLDTFKLLEEEDLDELNIRDPEHRAVLLTAVELLQEYDSN, with -0.612 ± 0.072; and GRPQQPKSVEDLLDRINLKEHMPTFLFNGYEDLDTFKLLEEEDLDELNIRDPEHRAVLLTAVELLQEYDSN, with 0.159 ± 0.056; and GRPIQPKSVEDLLDRINLKEHMPTFLFNGYEDLDTFKLLEEEDLDELNIRDPEHRAVLLTAVELLQEYDSN, with 0.058 ± 0.057. With GRPPQPKSVEDLLDRINLKCHMPTFLFNGYEDLDTFKLLEEEDLDELNIRDPEHRAVLLTAVELLQEYDSN, the abundance fitness is -0.124 ± 0.063. The same measure, in the same setting: for GRPPQPKSVEDLLDRINLKEHMPTFLFNGYEDLDTFKLLEEEDLDELNIRDPEHRAVLLTAVELLQERDSN the value was 0.094 ± 0.038; for GRPPQPKSVEDLLDRINLKEHMPTFLFNGYEDLDTFKLLEEEDLDELNIRDPEHRAVLLTAVELLQEQDSN, 0.254 ± 0.048; for GRPPQPKSVEDLLDRINLKEHMPTFLFNGYEDLDTFKLLEEEDLDELNIRDPEHRAVLLTAVELLQEIDSN, -0.191 ± 0.055.

On to GRPPQPKSVEDLLDRINLKEHMPTFLFNGYEDLDTFKLLEEEDLDELNIRDPEHRAVLLTAVELLQESDSN, for which the abundance fitness was 0.14 ± 0.038. The same measure, in the same setting: for GRPPQPKSVEDLLDRINLKEHMPTFLFFGYEDLDTFKLLEEEDLDELNIRDPEHRAVLLTAVELLQEYDSN the value was -0.426 ± 0.062. On the same count and under the same terms, for GRPPQPKSVEDLLDRINLKEHMPTFLFRGYEDLDTFKLLEEEDLDELNIRDPEHRAVLLTAVELLQEYDSN the value was -0.607 ± 0.049; for GRPPQPKSVEDLLDRINLKEHMPTFLFNGYEDLDTFKLLEEFDLDELNIRDPEHRAVLLTAVELLQEYDSN, -0.743 ± 0.067.

The variants in a further data set derive from B2. The data set is described as above. The conditions noted are these: Homo sapiens.
SGWQYDTQCSLAGVGIEMGDWQEVWDENTGCYYYWNTQTNEVTWELPQYLATQVQGLQHYQH: the abundance fitness turned out to be 0.084 ± 0.32. Consider SGWQYDTQCSLAGVGIEMGDWQEVWDENTGCYYYWNTQTNEVTWELPQYLATQVQGLQHYQM, for which the abundance fitness turned out to be 0.218 ± 0.32. Regarding SGWQYDTQCSLAGVGIEMGDWQEVWDENTGCYYYWNTQTNEVTWELPQYLATQVQGLQHYQI, the abundance fitness was -0.268 ± 0.21. With SGWQYDTQCSLAGVGIEMGDWQEVWDENTGCYYYWNTQTNEVTWELPQYLATQVQGLQHYQL, the abundance fitness is -0.011 ± 0.14.

Regarding SGWQYDTQCSLAGVGIEMGDWQEVWDENTGCYYYWNTQTNEVTWELPQYLATQVQGLQHYQQ, the abundance fitness was -0.237 ± 0.16. Same read-out and setting: for SGWQYDTQCSLAGVGIEMGDWQEVWDENTGCYYYWNTQTNEVTWELPQYLATQVQGLQHYQV the value was -0.423 ± 0.16. On the same count and under the same terms, for SGWQYDTQCSLAGVGIEMGDWQEVWDENTGCYYYWNTQTNEVTWELPQYLATQVQGLQHYQY the value was -0.161 ± 0.23; for SGWQYDTQCSLAGVGIEMGDWQEVWDENTGCYYYWNTQTNEVTWELPQYLATQVQGLQHYQK, 0.194 ± 0.17; for SGWQYDTQCSLAGVGIEMGDWQEVWDENTGCYYYWNTQTNEVTWELPQYLATQVQGLQHYQS, 0.045 ± 0.11.

With SGWQYDTQCSLAGVGIEMGDWQEVWDENTGCYYYWNTQTNEVTWELPQYLATQVQGLQHYQG, the abundance fitness is -0.028 ± 0.11.

With SGWQYDTQCSLAGVGIEMGDWQEVWDENTGCYYYWNTQTNEVTWELPQYLATQVQGLQHYQT, the abundance fitness was -0.009 ± 0.12. Consider SGWQYDTQCSLAGVGIEMGDWQEVWDENTGCYYYWNTQTNEVTWELPQYLATQVQGLQHYQR, for which the abundance fitness was -0.29 ± 0.093.

(Values after the Human Domainome abundance scans (Beltran et al. 2025).)
